According to patent publication US20230057263A1 (CYTOMX THERAPEUTICS, published 2023):
No end group written: not given here. *: point of attachment. Biotin = O=C1N[C@H]2[C@H](CS[C@H]2CCCCC(=O)*)N1; code X = not defined here

Key:
[1] = target: T1, B X EEMGGITQTPYKVSI (reading uncertain); test: Luminex bead assay [Cont.]
T1 construct: row 6 of the chart; also called biotinylated 15-mer, residues 5-19
T1 peptide: {Biotin-code X}-EEMGGITQTPYKVSI
Procedure: (§1) A set of experiments was performed to map the epitope recognized by the anti-CD3ε antibodies. In these experiments, the anti-CD3ε antibodies were assessed for binding to a collection of overlapping 15-mer peptides spanning amino acids 1-27 of human CD3ε protein using a Luminex bead assay. Control CD3 proteins, control peptides, or the test peptides were immobilized on Luminex beads and incubated with a panel of anti-CD3 antibodies. Binding of the anti-CD3 antibodies to the peptide/protein immobilized on the Luminex bead was detected by R-Phycoerythrin conjugated secondary antibody.
(§2) Recombinant CD3 proteins (human CD3d/e heterodimer and cynomolgus CD3-epsilon (Sinobiological)) and control peptides (#p1, #p2, and #p3) were conjugated to Luminex beads using standard EDC/Sulfo-NHS chemistry. The 15-mer test peptides were synthesized as biotinylated peptides at JPT Peptide Technologies Gmbh and were immobilized on streptavidin-conjugated Luminex beads that were made using standard EDC/Sulfo-NHS chemistry and streptavidin (Invitrogen Cat. No. 434301 lot 1626028A). The Luminex beads with immobilized peptides or reagents were incubated with 50 ul of a panel of anti-CD3 antibodies (1 ug/ml) for one hour at room temperature, washed two times, incubated with mixture of anti-human and anti-mouse IgG-RPE (Jackson Immunoresearch 109-116-097 and Southern Biotech 1030-09, respectively) for 30 mins at RT, washed three times, and analyzed in the Luminex instrument to assess the level of bound anti-CD3 antibodies.

[2] = target: T2, B X EMGGITQTPYKVSIS (reading uncertain); test: Luminex bead assay [Cont.]
T2 construct: row 7 of the chart; also called biotinylated 15-mer, residues 6-20
T2 peptide: {Biotin-code X}-EMGGITQTPYKVSIS
Procedure: as §1, §2

[3] = target: T3, B X GGITQTPYKVSISGT (reading uncertain); test: Luminex bead assay [Cont.]
T3 construct: row 9 of the chart; also called biotinylated 15-mer, residues 8-22
T3 peptide: {Biotin-code X}-GGITQTPYKVSISGT
Procedure: as §1, §2

[4] = target: T4, B X TPYKVSISGTTVILT (reading uncertain); test: Luminex bead assay [Cont.]
T4 construct: row 14 of the chart; also called biotinylated 15-mer, residues 13-27
T4 peptide: {Biotin-code X}-TPYKVSISGTTVILT
Procedure: as §1, §2

[5] = target: T5, B X QDANEEMGGITQTP (reading uncertain); test: Luminex bead assay [Cont.]
T5 construct: row 17 of the chart; 14 residues; also called alanine-scan peptide G3A
T5 peptide: {Biotin-code X}-QDANEEMGGITQTP
Procedure: as §1, §2

[6] = target: T6, B X QDGAEEMGGITQTP (reading uncertain); test: Luminex bead assay [Cont.]
T6 construct: row 18 of the chart; 14 residues; also called alanine-scan peptide N4A
T6 peptide: {Biotin-code X}-QDGAEEMGGITQTP
Procedure: as §1, §2

[7] = target: T7, human CD3 epsilon (CD3ε) (human, UniProt P07766 23-207); test: flow cytometry on human T cells
T7 construct: Present on donor human T cells as part of the TCR-CD3 complex; also called CD3ε on human T cells
Procedure: In these experiments, human or cynomolgus T cells were incubated with an anti-CD3ε antibody and binding was assessed by flow cytometry.
Briefly, donor T cells from either human or cynomolgus donors were resuspended in FACS buffer containing 0.1% sodium azide and aliquoted in 100 μL volumes. For incubation, 100 μL aliquots of donor T cells were mixed with 50 μL of antibodies diluted in FACS buffer containing 0.1% sodium azide. The cells were then washed twice with FACS buffer containing sodium azide. The bound antibody was detected by incubating cells for 60 minutes with a 1:200 dilution of SAV-RPE (Invitrogen Cat No. SA10044, Lot. 1542820A) or 1:100 dilution of goat-anti-Mouse Fcγ-RPE (Jackson Cat. No. 115-116-071, Lot. 108668, diluted in 0.2% goat serum). The cells were washed, fixed, and analyzed with an Accuri Flow Cytometer.
Treatment with OKT3, SP34-2, and diL2K antibodies were used as positive controls for T cell binding. […] Treatment with OKT3, SP34-2, and diL2K antibodies were used as controls for T cell binding with only SP34-2 binding to cynomolgus T cells, as expected.

binding result [1]: no binding (tested: 1 ug/ml)
binding result [2]: no binding (tested: 1 ug/ml)
binding result [3]: no binding (tested: 1 ug/ml)
binding result [4]: no binding (tested: 1 ug/ml)
binding result [5]: no binding (tested: 1 ug/ml)
binding result [6]: no binding (tested: 1 ug/ml)
EC50 (read off the curve) [7]: ~0.06 nM
B1: 6d59 (antibody, V domains shown)
VH: QVHLVESGGGVVQPGRSLRLSCAASGFKFRSYGMHWVRQAPGKGLEWVAIIWYDGSKRYYADSVKGRFTISRDNSKNTLYLQMSSLRAEDTAVYYCARDLITGTTDYWGQGTLVTVSS
VL: DVVMTQSPLSLPVTLGQPASISCRSSRSLVYSDGNTHLIWFQQRPGQSPRRLIYRVSNRVSGVPDRFSGSGSGTDFTLKISRVEAEDVGVYYCLQGAHWPYTFGQGTKLEIKR
notes: also called 6d59.1; VCD3-6d59.1
